These results are taken from US20150315275A1 (AstraZeneca / MedImmune, published 2015).

The target in this assay is T1, B7-H4-Ig fusion protein (human).
T1 construct: also called human B7-H4 Ig
Briefly: antibody captured on B7-H4-Ig fusion protein, detected with biotin-anti-mouse IgG1 and Europium-Streptavidin. From the text: Serum was collected for initial evaluation of PK (peak and trough post 4th dose). Antibody was captured from serum with a B7-H4-Ig fusion protein, and detected with biotin-anti-mouse IgG1 (6H3.mIgG1) or IgG2a (6H3.mIgG2a) and detected with Europium-Streptavidin.

T1 sequence (chain, as listed by the source limits assumed): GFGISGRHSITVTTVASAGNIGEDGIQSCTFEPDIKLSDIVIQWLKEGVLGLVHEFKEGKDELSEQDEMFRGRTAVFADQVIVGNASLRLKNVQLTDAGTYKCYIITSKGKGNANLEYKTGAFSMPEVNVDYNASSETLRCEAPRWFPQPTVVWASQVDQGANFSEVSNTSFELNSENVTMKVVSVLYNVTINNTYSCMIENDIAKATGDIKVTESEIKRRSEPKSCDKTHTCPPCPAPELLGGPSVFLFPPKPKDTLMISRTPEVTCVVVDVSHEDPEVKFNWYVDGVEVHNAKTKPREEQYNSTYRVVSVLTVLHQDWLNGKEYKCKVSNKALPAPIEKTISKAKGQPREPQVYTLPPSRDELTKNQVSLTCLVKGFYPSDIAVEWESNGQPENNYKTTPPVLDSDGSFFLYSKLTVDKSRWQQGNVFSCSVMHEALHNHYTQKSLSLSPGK

B1: mouse 6H3.m1 (mouse IgG1) (antibody, V domains shown)
VH: EVQLQQSGPVLVKPGTSVKMSCKASGYTFTDYYMNWVKQSHGKSLEWIGVINPYNGDTTYNQKFKGKATLTVDKSSSTAYMEVNSLTFEDSAVYYCARYPESTYWGQGTLVTVSA
VL: DVVMTQTPLSLPVSLGDQASISCRSSQSLVHINGNTYLHWYLQKPGQSPKVLIYKVSNRFSGVPDRFSGSGSGTDFTLKISRVEAEDLGVYFCSQSTHVPLTFGAGTKLELK
notes: 6H3 as mouse IgG1; also called 6H3.mIgG1
Broadly, the EC50 (read off the curve) is the concentration needed to bring the measured effect to its halfway point. B1: the “EC50 (read off the curve)” value is roughly 0.01 µg/mL.
